The record followed here is patent US20260092115A1 (Chugai, published 2026).

Test [1] deals with T1, human FcγRIa extracellular domain, His-tagged (human, UniProt P12314 16-292).
T1 construct: also called hFcγR Ia
Put plainly: KD of 04H1637-G1m/04L1610-lam1 divided by KD of this antibody; SPR pH 7.4. Here is the method:
(§1) The interaction between the generated antibodies and human FcγRs was analyzed by the following method using Biacore T200. 50 mM Na-Phosphate, 150 mM NaCl, 0.05% Tween20 (pH 7.4) was used as the running buffer, and the assay was performed at 25° C. For the sensor chips, Series S SA (GE Healthcare) chips onto which CaptureSelect Human Fab-lambda Kinetics Biotin Conjugate (Thermo Fisher Scientific) was immobilized were used. The antibodies of interest were captured onto these chips and each FcγR diluted in the running buffer was allowed to interact with them. Chips were regenerated with 10 mM Glycine-HCl (pH 1.5) and 25 mM NaOH, and assay was performed by repeatedly capturing antibodies. The dissociation constants KD (mol/L) for FcγRs of each antibody were calculated using Biacore T200 Evaluation Software 2.0, using the 1:1 Langmuir binding model for FcγRIa and FcγRIIIa and the steady state affinity model for FcγRIIa. For FcγRIIb, the binding amount of FcγRIIb per unit amount of antibody was calculated by correcting the binding amount of FcγRIIb obtained from the sensorgram obtained by the measurement with the amount of antibody captured onto the chip surface.
(§2) “Relative value to KD between G1m and hFcRn” and “Relative value to KD between G1m and hFcγRs” are values obtained by dividing the KD value of 04H1637-G1m/04L1610-lam1 for hFcRn and for each FcγR by the KD value of each variant, respectively. “Relative binding amount” indicates the value obtained by dividing the binding amount of each variant to FcγRIIb by the binding amount of 04H1637-G1m/04L1610-lam1. […] It was shown that all of the generated heterodimerized antibodies had enhanced binding to FcγRIIa and FcγRIIIa as compared with 04H1637-G1m/04L1610-lam1 which has the constant region of native human IgG1.

Test [2] addresses T2, human FcγRIIa, type R, extracellular domain, His-tagged (human, UniProt P12318 34-217).
T2 construct: extracellular domain; also called hFcγR IIa R
T2 sequence (looked up): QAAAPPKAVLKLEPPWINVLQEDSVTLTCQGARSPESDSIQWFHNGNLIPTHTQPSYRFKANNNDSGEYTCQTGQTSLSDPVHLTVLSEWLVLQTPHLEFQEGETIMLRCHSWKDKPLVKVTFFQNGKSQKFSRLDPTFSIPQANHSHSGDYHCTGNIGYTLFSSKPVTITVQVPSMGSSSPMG
The description is as above. The procedure:
as §1, §2

The target in test [3] is T3, human FcγRIIa, type H, extracellular domain, His-tagged (human, UniProt P12318 34-217).
T3 construct: extracellular domain; also called hFcγR IIa H
T3 sequence (looked up): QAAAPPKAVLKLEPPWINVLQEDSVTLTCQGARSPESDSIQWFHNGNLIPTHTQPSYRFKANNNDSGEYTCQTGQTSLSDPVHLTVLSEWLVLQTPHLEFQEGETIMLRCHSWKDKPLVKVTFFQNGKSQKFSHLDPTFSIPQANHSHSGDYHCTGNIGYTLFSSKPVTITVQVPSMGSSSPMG
The test is described as above. The procedure: as §1, §2

Test [4] deals with T4, human FcγRIIIa, allotype F158, extracellular domain, His-tagged (human, UniProt P08637 17-208).
T4 construct: extracellular domain; also called hFcγR IIIa F
T4 sequence (P08637 17-208): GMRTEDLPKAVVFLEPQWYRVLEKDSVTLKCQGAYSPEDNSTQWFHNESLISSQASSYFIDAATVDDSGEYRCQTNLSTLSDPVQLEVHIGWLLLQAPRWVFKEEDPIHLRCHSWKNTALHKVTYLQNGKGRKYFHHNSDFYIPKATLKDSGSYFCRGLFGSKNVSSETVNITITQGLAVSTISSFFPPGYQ
Described as above. Here is the method: as §1, §2

For test [5], the target named is T5, human FcγRIIIa, allotype V158, extracellular domain, His-tagged (human, UniProt P08637 17-208).
T5 construct: extracellular domain; also called hFcγR IIIa V
T5 sequence (P08637 17-208 F176V): as the sequence (P08637 17-208) above, with F160V counted along it
The test is described as above. The procedure: as §1, §2

The target of test [6] is T6, human FcγRIIb extracellular domain, His-tagged (human, UniProt P31994 43-217).
T6 construct: extracellular domain; also called hFcγR IIb
T6 sequence (looked up): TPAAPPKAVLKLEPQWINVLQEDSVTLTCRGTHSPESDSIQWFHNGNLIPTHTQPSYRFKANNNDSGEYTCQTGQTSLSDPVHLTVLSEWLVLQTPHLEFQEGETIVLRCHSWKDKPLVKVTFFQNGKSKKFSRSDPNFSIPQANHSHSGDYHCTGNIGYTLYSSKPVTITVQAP
As to the kind of experiment: SPR Biacore T200, 25C, pH 7.4; FcγRIIb at 1000 nM, corrected by captured antibody. Here is the method:
as §1
(In general: In SPR one partner is held on a chip, and binding of the other changes the refractive index at the surface.)

The target in test [7] is T6, human FcγRIIb extracellular domain, …. As to the kind of experiment: binding amount of this antibody divided by that of 04H1637-G1m/04L1610-lam1; SPR pH 7.4. Here is the method: as §1, §2

T1 sequence (P12314 16-292): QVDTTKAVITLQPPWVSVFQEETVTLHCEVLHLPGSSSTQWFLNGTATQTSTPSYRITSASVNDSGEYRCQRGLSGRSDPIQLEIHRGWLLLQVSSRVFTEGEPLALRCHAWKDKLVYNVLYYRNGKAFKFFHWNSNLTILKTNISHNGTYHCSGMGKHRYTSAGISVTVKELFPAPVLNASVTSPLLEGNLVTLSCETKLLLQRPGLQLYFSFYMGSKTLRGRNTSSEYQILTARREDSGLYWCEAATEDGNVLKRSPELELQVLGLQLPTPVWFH

B1: 04H1637-Kn462/04L1610-lam1//04H1637-H1441/04L1610-lam1 (antibody, human IgG1, lambda)
heavy 1: QVQLVESGGGLVKPGGSLRLSCAASGFTFSSKTMNWVRQAPGKGLEWVSSISTQSHYIYYAESVRGRFTISRDNAKNSLYLQMNSLRAEDTAVYYCARYGKREDMLWVFDYWGQGTLVTVSSASTKGPSVFPLAPSSKSTSGGTAALGCLVKDYFPEPVTVSWNSGALTSGVHTFPAVLQSSGLYSLSSVVTVPSSSLGTQTYICNVNHKPSNTKVDKKVEPKSCDKTHTCPPCPAPEFQWGPMVFLFPPKPKDVLMISRTPEVTCVVVDVSDEEPEVKFNWYVDGVEVHNAKTKPREEQYNATYRVVSVLPVLHQDWLNGKEYKCKVSNDALPAPIEKTISKAKGQPREPQVCTLPPSRDELTKNQVSLWCLVKGFYPSDIAVEWESNGQPENNYKTTPPVLDSDGSFFLYSKLTVDKSRWQQGNVFSCSVMHEALHNHYTQKSLSLSP
heavy 2: QVQLVESGGGLVKPGGSLRLSCAASGFTFSSKTMNWVRQAPGKGLEWVSSISTQSHYIYYAESVRGRFTISRDNAKNSLYLQMNSLRAEDTAVYYCARYGKREDMLWVFDYWGQGTLVTVSSASTKGPSVFPLAPSSKSTSGGTAALGCLVKDYFPEPVTVSWNSGALTSGVHTFPAVLQSSGLYSLSSVVTVPSSSLGTQTYICNVNHKPSNTKVDKKVEPKSCDKTHTCPPCPAPELLAGPSVFLFPPKPKDVLMISRTPEVTCVVVDVSHEEPEVKFNWYVDGVEVHNAKTKPREEQYNATYRVVSVLPVLHQDWLNGKEYKCKVSNDALPAPIEETISKAKGQPREPQVYTLPPSRCELTKNQVSLSCAVKGFYPSDIAVEWESNGQPENNYKTTPPVLDSDGSFFLVSKLTVDKSRWQQGNVFSCSVMHEALHNHYTQKSLSLSP
light: QSALTQPPSASGSPGQSVTISCEGPSTGVGDYNWVHWYQQHPGKAPKLMIYFTSKKPSGVPDRFSGSKSGNTASLTVSGLQAEDEADYYCQTYAAPLGPMFGGGTKLTVLGQPKAAPSVTLFPPSSEELQANKATLVCLISDFYPGAVTVAWKADSSPVKAGVETTTPSKQSNNKYAASSYLSLTPEQWKSHRSYSCQVTHEGSTVEKTVAPTECS
notes: Heterodimerized IgG1 Fc variant; also called 04H1637-Kn462/04L1610-lam1//04H1637-Hl441/04L1610-lam1
In the case of B1, the “Relative value to KD between G1m and hFcγRs” value (from here on “Relative value”) was 0.3 ratio in test [1]; 9.2 ratio in test [2]; 20.9 ratio in test [3]; 79.5 ratio in test [4]; 45.8 ratio in test [5]. The Binding amount in test [6] is 0.013 RU per RU of captured antibody. In addition, in test [7], the Relative binding amount was found to be 1.6 ratio.

B2: 04H1637-Kn125/04L1610-lam1//04H1637-H1076/04L1610-lam1 (antibody, human IgG1, lambda)
heavy 1: QVQLVESGGGLVKPGGSLRLSCAASGFTFSSKTMNWVRQAPGKGLEWVSSISTQSHYIYYAESVRGRFTISRDNAKNSLYLQMNSLRAEDTAVYYCARYGKREDMLWVFDYWGQGTLVTVSSASTKGPSVFPLAPSSKSTSGGTAALGCLVKDYFPEPVTVSWNSGALTSGVHTFPAVLQSSGLYSLSSVVTVPSSSLGTQTYICNVNHKPSNTKVDKKVEPKSCDKTHTCPPCPAPEYQWGPMVFLFPPKPKDTLMISRTPEVTCVVVDVSDEEPEVKFNWYVDGVEVHNAKTKPREEQYNATYRVVSVLTVLHQDWLNGKEYKCKVSNKALPAPIEKTISKAKGQPREPQVCTLPPSRDELTKNQVSLWCLVKGFYPSDIAVEWESNGQPENNYKTTPPVLDSDGSFFLYSKLTVDKSRWQQGNVFSCSVMHEALHNHYTQKSLSLSP
heavy 2: QVQLVESGGGLVKPGGSLRLSCAASGFTFSSKTMNWVRQAPGKGLEWVSSISTQSHYIYYAESVRGRFTISRDNAKNSLYLQMNSLRAEDTAVYYCARYGKREDMLWVFDYWGQGTLVTVSSASTKGPSVFPLAPSSKSTSGGTAALGCLVKDYFPEPVTVSWNSGALTSGVHTFPAVLQSSGLYSLSSVVTVPSSSLGTQTYICNVNHKPSNTKVDKKVEPKSCDKTHTCPPCPAPELLGGPSVFLFPPKPKDTLMISRTPEVTCVVVDVSHEEPEVKFNWYVDGVEVHNAKTKPREEQYNSTYRVVSVLTVLHQDWLNGKEYKCKVSNDALPMPIEETISKAKGQPREPQVYTLPPSRCELTKNQVSLSCAVKGFYPSDIAVEWESNGQPENNYKTTPPVLDSDGSFFLVSKLTVDKSRWQQGNVFSCSVMHEALHNHYTQKSLSLSP
light: QSALTQPPSASGSPGQSVTISCEGPSTGVGDYNWVHWYQQHPGKAPKLMIYFTSKKPSGVPDRFSGSKSGNTASLTVSGLQAEDEADYYCQTYAAPLGPMFGGGTKLTVLGQPKAAPSVTLFPPSSEELQANKATLVCLISDFYPGAVTVAWKADSSPVKAGVETTTPSKQSNNKYAASSYLSLTPEQWKSHRSYSCQVTHEGSTVEKTVAPTECS
notes: Heterodimerized IgG1 with the Fc variant of WO 2013/002362; also called 04H1637-Kn125/04L1610-lam1//04H1637-Hl076/04L1610-lam1
For B2, the “Relative value” value in test [1] turned out to be 1.2 ratio; in test [2], 1.6 ratio; in test [3], 3.6 ratio; in test [4], 406 ratio; in test [5] it was 126 ratio. In test [6], the Binding amount was 0.007 RU per RU of captured antibody. In test [7], this molecule registered a Relative binding amount of 0.9 ratio.

B3: 04H1637-Kn461/04L1610-lam1//04H1637-H1443/04L1610-lam1 (antibody, human IgG1, lambda)
heavy 1: QVQLVESGGGLVKPGGSLRLSCAASGFTFSSKTMNWVRQAPGKGLEWVSSISTQSHYIYYAESVRGRFTISRDNAKNSLYLQMNSLRAEDTAVYYCARYGKREDMLWVFDYWGQGTLVTVSSASTKGPSVFPLAPSSKSTSGGTAALGCLVKDYFPEPVTVSWNSGALTSGVHTFPAVLQSSGLYSLSSVVTVPSSSLGTQTYICNVNHKPSNTKVDKKVEPKSCDKTHTCPPCPAPEFQWGPMVFLFPPKPKDVLMISRTPEVTCVVVDVSDEEPEVKFNWYVDGVEVHNAKTKPREEQYNATYRVVSVLPVLHQDWLNGKEYKCKVSNDALPAPEEKTISKAKGQPREPQVCTLPPSRDELTKNQVSLWCLVKGFYPSDIAVEWESNGQPENNYKTTPPVLDSDGSFFLYSKLTVDKSRWQQGNVFSCSVMHEALHNHYTQKSLSLSP
heavy 2: QVQLVESGGGLVKPGGSLRLSCAASGFTFSSKTMNWVRQAPGKGLEWVSSISTQSHYIYYAESVRGRFTISRDNAKNSLYLQMNSLRAEDTAVYYCARYGKREDMLWVFDYWGQGTLVTVSSASTKGPSVFPLAPSSKSTSGGTAALGCLVKDYFPEPVTVSWNSGALTSGVHTFPAVLQSSGLYSLSSVVTVPSSSLGTQTYICNVNHKPSNTKVDKKVEPKSCDKTHTCPPCPAPELLAGPSVFLFPPKPKDVLMISRTPEVTCVVVDVSHEEPEVKFNWYVDGVEVHNAKTKPREEQYNATYRVVSVLPVLHQDWLNGKEYKCKVSNDALPAPEEETISKAKGQPREPQVYTLPPSRCELTKNQVSLSCAVKGFYPSDIAVEWESNGQPENNYKTTPPVLDSDGSFFLVSKLTVDKSRWQQGNVFSCSVMHEALHNHYTQKSLSLSP
light: QSALTQPPSASGSPGQSVTISCEGPSTGVGDYNWVHWYQQHPGKAPKLMIYFTSKKPSGVPDRFSGSKSGNTASLTVSGLQAEDEADYYCQTYAAPLGPMFGGGTKLTVLGQPKAAPSVTLFPPSSEELQANKATLVCLISDFYPGAVTVAWKADSSPVKAGVETTTPSKQSNNKYAASSYLSLTPEQWKSHRSYSCQVTHEGSTVEKTVAPTECS
notes: Heterodimerized IgG1 Fc variant; also called 04H1637-Kn461/04L1610-lam1//04H1637-Hl443/04L1610-lam1
On to B3, for which the “Relative value” value in test [1] came to 1.2 ratio; in test [2] it was 10.7 ratio; in test [3] it was 11.1 ratio; in test [4] it was 616 ratio; in test [5], 226 ratio. In addition, the Binding amount in test [6] was 0.025 RU per RU of captured antibody. For the same molecule, the Relative binding amount in test [7] is 3.1 ratio.
